Measurements published in the nanobody polyreactivity screen of Harvey et al. (2022).

assay: yeast display, Sf9 membrane polyspecificity reagent, FACS + sequencing; frameworks hold sequencing errors
Summary of the method: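 Synthetic nanobody libraries on Saccharomyces cerevisiae BJ5465 were galactose-induced for 36–48 hours, stained 1 hour at 4 °C with 10% biotinylated, detergent-solubilized Sf9 membrane reagent and enriched on streptavidin microbeads. FACS then separated cells into low and high (top ~1%) gates by anti-HA (expression) and streptavidin (reagent binding) fluorescence. Genes were colony-PCR amplified, MiSeq 2 × 250 sequenced and CDR-length filtered. A clone's polyreactivity label is that of its gate of origin.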

Row | Sequence | polyreactivity (PSR sort gate)
1 | QVQLVESGGGLVQARGSLRLSCAASGSTFQYTMGCYRQAPRTERELVAAITSTGGSTYYADSVKGRFTISRDNAKNTVYLQRNSLKAEDTAVYYWNADYFGGGDYWGQGTQVTVSS | low polyreactivity
2 | QVQLVESGGGLVQAGGSLRLSCAASGFTFAVYTMGWYRQAPGKERELVAAITASGGSMHYADSVKGRFTISRDNVKNTVYLQMNSLKPEDTAVYYCAARPRLYQYYYWGQGTQVTVSS | high polyreactivity
3 | QVQLVESGGGLVQAGGSLRLSCAASGFTFPSYAMAWYRQDPGKEREFVAGITKGGGNTYYADAVKGRFTISRDNAKNTVYLQKNSLKQEDTAVYYCSADRSSFYWSHGTVYGYDYWGQGTQVTVSS | low polyreactivity
4 | QVQLVESGGGLVQAGGSLRLSCAASGRTFGQYVMGWYRKAPGKERELVAAIRSGGSTYYADSVKGRFTISRDNAKNTVYLQMNSLKPEDTAVYYCAKETYYVTDNFGQVGGEMDYWGQGTQVTVSS | low polyreactivity
5 | QVQLVESGGGLVQAGGSLRLSCAASGYIFSGYAMGWYRQAPGKERELVAAISSSGGRTYYADSVKGRFTISRDNAKNTVYLQMNSLKPEDTAVYYCAADAVYYHFDYWGQGTQVTVSS | high polyreactivity
6 | QVQLVESGGGLVQAGGSLRLSCAASGRTLSRNAMGWSRQAPGKEREFVAAISSRGTSTYYADSVKGRFTISRDNAKNTVYLQMNSLKPEDTAVYYCATTLGGNYGYDYWGQGTQVTVSS | high polyreactivity
7 | QAQLKDSCGGLVQAGGSLRLSCPASGNNTSEYYMGCCRQAPGKGREFVDAIDYGGTTNYADNVKGRFTISRDNAKNTVYLQMNSLRPEDTALYYCAASWDTIGLFAYWGQGSQVTVSS | high polyreactivity
8 | QVQLVESGGGLVQAGGSLRLSCAASGRILTSNAMGWSRQAPGKERELVAAISWSGGSTYYADSVKGRFTISRDNAKNTVYLQMNSLKPEDTAVYYCAAPFTTTFDYWGQGTQVTVSS | low polyreactivity
9 | QVQLVESGGGLVQAGGSLRLSCAASGLIFPSYAMGWYRQAPGKEMELVAAITFSGSDTNYADSVKGRFTISRDNAKNTVYLQMNSLKPEDTAVAYCAAAYFDFWGWLHDYWGQGTQVTVSS | low polyreactivity
10 | QVQLVESGGGLVQAGGSLRLSCAASGLIFNYYAMGWYRQAPGKERELVAAISYNGGTTYYADSVKGRFTISRDNAKNTVYLQMNSLKPEDTAVYYCAAEQLVSGYDYWGQGTQVTVSS | low polyreactivity
11 | QVQLVESGGGLVQAGGSHRLSCAASGSIFKDNAMGWYRQAPGKERELVAAITSGASTNYADSVKGRFTMSRDNAKNTVYLQMNSLKPEDTAVYYCAAGTRPTRFVGTKYDYWGQGTQVTVSS | low polyreactivity
12 | QVQLVESGGGLVQAGGSLRLSCAASGFTFGIYAMGRYRQAPGKERELVAAISRSGGSTYYADSVKGRFTISRDNAKNTVYLQMNSLKPEDTAVYYCNTRWGYARGGRYGYWGQGTQVTVSS | high polyreactivity
13 | QVQLVESGGGLVQAGGSLRLSCAASGFTFNRYAMGWYRQAPGQERELVAAISRSGGSTSYADSVKGRFTISRDNAKKTVYLPMHSLKPEDTAVYYCAADRVWYLYYDYNYWGQGTQVTVSS | high polyreactivity
14 | QVQLVESGGGLVQAGGSLRLSCAASGIIFFNNVMGWYRQAPGKERVLVAGITYTGGSTYYADSVKGRFTISRDNAKNTVYLHMNSLKPEDTAVYNCNKDYANTRRVTEYDYWGQGTQVTVSS | low polyreactivity
15 | QVQLQESGDGLVQADGSLRLSCAASGYISGYYYMGWYRQQPGKERELVAGIDAFGSSTNYADCVKGRFTISRDNGKNTVYLQMISPKPDDTAVYYCAAVYDDWDYHWYWGQGTQVTVSS | low polyreactivity
16 | QVQLVESGGGLVQAGGSLRLSCAASGSTYIANPMGWYRQAPGKEREFLATISRRGGSTYYADSVKGRFTISRDNAKNTVYLQMNSLKPEDTAVYYCAARPLTYIRFRYYYWGQGTQVTVSS | high polyreactivity
17 | QVQLVESGGGLVQEGGRLRISCAATGINFSWYAMGWNRPATGKERELVASITIGGNTNFADSVKGRFTISLYNAKNSVYLQMNSLKREDTAVYYCAAQTFWYGYGGGVYWGQGTQVTVSS | low polyreactivity
18 | QVQLVQSGGGLVQAGGSLRLSCAASGSTFPQNAMGWNRQAPGKERELVAVISRSGGNTYYADSVKGRFTISRDNAKNTVYLQMNSLKPEDTAVYYCATRVNTTYDYWGQGTQVTVSS | low polyreactivity
19 | QVQLVESGGGLVQAGGSLRLSCAASGSIFIYNAMGWYRQAPGKERELVAAISSSGGSTYYADSVKGRFTISRDNAKNTVYLQMNSLNPEDTAVSYCAARTYYVRGLGGRPGMDYWGQGTQVTVSS | low polyreactivity
20 | QVQLVESGGGLVQAGGSLRLICAASGIIFATYAMGWYRQAPGKERELVAVISNDGSTHYADSVKGRFTISRDNAKNTVYLQMNSLKPEDTAVYYCAARYPYDWRHDYWGQGTQVTVSS | low polyreactivity
21 | QVQLVESGGRLVQAGGSLRLSCAASGSTFRKYAMGWYIQAPGKERELVASISRGGTTYYADSVKGRFTISRDNAKNTVYLQMNSLKPEDTAVYYCNKASYRWYWGYLDYYYWGQGTQVTVSS | high polyreactivity
22 | QVQLVESGGGLFQAGGSLRLSCAATGRTYEGNAMGWSIQAPGKERELVAAITSGGRTNYADSVKGRFSISRDNAKNTVDLQMNSLKPEDTAVYYCAVETRDRSNYFPGQAYDYWGQGTQVTVSS | low polyreactivity

Row | Sequence | polyreactivity (PSR sort gate)
23 | QVQLVESGGGLVQAGGSLRLSCAASGGIFVQYTMGWYRQAPGKERELVAAISTGGSTYYADSVKGRFTISRDNAKNTVYLQMNSLKPEDTAVYYCAVVYRSQYSRYTSQWKEYYWGQGTQVTVSS | low polyreactivity
24 | QVQLVESGGGLVQAGGSLRLTCAASGFTFSPNAMGWYRQAPGKERELVAAIDWSGDRTYYADSVKGRFTISRDNAKNTVYLQMNSLKPEDTAVYYCNVVGRSPGDYSYYYSGQGTQVTVSS | low polyreactivity
25 | QVQLVESGGGLVQAGGSLRLSCAASGRTFWRYAMGWYIQAPGKERELVAAISSSGITYYADSVKGRFTISRDNAKNTVYLQMNSLKPEDTAVYYCAVRWGRGFWGQGTQVTVSS | high polyreactivity
26 | QVQLQESRGGPVLAGGSLRLSCAASGTIFVRLDMGWYRQAPGKEREFVATIGSGSSTYYADSVKGSFTISRDNVKNTVYLQMNSLKPEDTAVYYCAVSAAEQSRHYYWDQGTQVTVSS | low polyreactivity
27 | QVQLVESGGGLVQAGGSLRLSCAASGIIFRYYTMGWYRQAPGTERELVAAITSGGSTNYADSVKGRFTISRDNAKNTVYLQMNSLKPEDTAVYYCRQFSVWGYDYWGQGTQVTVSS | high polyreactivity
28 | QVQLVESGGGLVQAGGSLRLSCAASGLIFSRYTMGWYRQAPGKERELVAAISGRGTSTYYADSVKGRFTISRDNAKNTVYLQMNSLKPEDTAVYYCATSKSYSAFDYWGQGTQVTVSS | high polyreactivity
29 | QVQLVESGGGLVQAGGSLRLSCAASGRTFFPNAMGWYRQAPGKERELVASITSRGGGTYYADSVKGRFTISRDYAKNTVYLQMNSLKPEDTAVYYCADDRYYFSPGYNWWSEGYDYWGQGTQVTVSS | low polyreactivity
30 | QVQLVESGGGLVQEGGSIRLSCAASGRIFYFNTMGWSRQAPGKERELVAAISKNGGSTYYADSVKGRFTISRDNEKNSVYLQMNSLKPEDTAFYLCAKTRRLSPYDYWGLGTQVTVSS | high polyreactivity
31 | HVQLVESGAGLVQAGGSLRLSCAASGSIFGFYAMGWYRQAPGKERELVAAISSSGDSTYADSVKGRFTISRDNAKNTVYLQMNSLKPEDTAVYYCAADEDSRNWGQGTQVTVSS | high polyreactivity
32 | QVQLEESGGGLVQAGGSLRLSCAASGIISTVYAMGWYRQAPGKERELVAAISCSGGSTYYADSLKGSFTISRDNENNTVYLQMNSLKPEDTAVYYCSKGYQYQGNSYGYWGQGTQVTVSS | low polyreactivity
33 | QVQLVESGAGLVQAGGSLRLSCAASGIIFASNAMGWYRQAPGKERELLATINWTDSSTYYADSVKGRFTISRDNAKNTVYLQMNSLKPEDTAVYYCNAVPHWFYRYGRYDYWGQGTQVTVSS | low polyreactivity
34 | QVQLVESGVGLVQAGGSLRLSCAASGYTFQINAMGWYRQAPGKERELVAAITSGGRTYYADSVKGRFTISRDNAKNTVYLQMNSLKAEDTAVYYCNKVPRRGVDYWGQGTQVTVSW | low polyreactivity
35 | QVQLVESVGGLVQAGGSLRLSCAASGSTFNQYAMGWYRHPPGKERELVAAISWSGGRTYYADSVKGRFTISRDNAKNTVYLQMNSLKPEDTSVYYCNKLTRDGRKEDYWGQGTQVTVSS | high polyreactivity
36 | QVQLVESGGGLVQAGGSLRLSCAASGFIITGNAMGWYRKAPGKERELVAAITSGGNTYYADSVKGRFTISRDNAKNTVYLQMNSLKPEDTAVYYCAKYVPHWRILMEYWGQGTQVTVSS | low polyreactivity
37 | QVQLVESGGGLVQAGGSLRLSCAASGSTFYTYTMGWYRQAPGKERELVAAISSRGVSTYYADSVKGRFTISRDNAKNTVYLQMNSLKPEDTAVYYCAVSRIVDFGQKMYYWGQGTQVTVSS | high polyreactivity
38 | QVQLVESGVGLYQAGGSLRLSCAASGSIFEENAMVWYRQAPGKEMELVAAITIGGRTNYADSVKGRFTISRDNAKNTVYLEMNSLKPEDTAVYYCASDLSSIKYWLFWTRYYYWGQGTQVNVSS | low polyreactivity
39 | QVQLVESGGGLVQAGGSLRLSCAASGGTFAGYAMGWYRQAPGKERELVAAIRWSGGRTYYADSVKGRFTISRDNAKNSVYLQMNSLKPEDTAVYYCAANGHGRVYFEMDYWGQGTQVTVSS | high polyreactivity
40 | QVQLVESVGGLFQAGGSLRLSCAASGSTFDYYSMVWYRQAPGKERELVAGIDSAGSTNYADSVKGRFTISRDNAKNTVYLQMNSLKTGRYRGLYCNVGKTITTYAFPTFDYWGQGTQVTVSS | low polyreactivity
41 | QVQLVESGGGLVQAGGSLRLSCAASGSISYINAMGWYRQAPGKERELVARIRSGDRTNYADSVKGRFTISRDNAKNTVYLQMNSLKPEDTAVYYCAARGLRTGGYWGQGTQVTVSS | high polyreactivity
42 | QVQLVESGGGLVQAGGSLRLSCAASGRTFYKYGMGWYRQAPGKERELVARINSNGGSTYYADSVKGRFTISRDNAKNTVYLQMNSLKPEDTAVYYCAKRGSYRTKPASEYDSWGQGTQVTVSS | low polyreactivity
43 | QVQLVESGGGLVKAGGSLRLSCAASGRTFGSYAMGWYRLAPGTERELVAAITGSGAGTYYADSVKGRFTISRDNAKNTVYLQMNSLKPEDTSVYYCAARRPWQFYYWVQGTQVTVSS | high polyreactivity
